Assay results reported in article PMC8420271 (The EMBO Journal, 2021).

B1: GST-GSDMD (full-length human GSDMD) (natural protein)
chain: MGSAFERVVRRVVQELDHGGEFIPVTSLQSSTGFQPYCLVVRKPSSSWFWKPRYKCVNLSIKDILEPDAAEPDVQRGRSFHFYDAMDGQIQGSVELAAPGQAKIAGGAAVSDSSSTSMNVYSLSVDPNTWQTLLHERHLRQPEHKVLQQLRSRGDNVYVVTEVLQTQKEVEVTRTHKREGSGRFSLPGATCLQGEGQGHLSQKKTVTIPSGSTLAFRVAQLVIDSDLDVLLFPDKKQRTFQPPATGHKRSTSEGAWPQLPSGLSMMRCLHNFLTDGVPAEGAFTEDFQGLRAEVETISKELELLDRELCQLLLEGLEGVLRDQLALRALEEALEQGQSLGPVEPLDGPAGAVLECLVLSSGMLVPELAIPVVYLLGALTMLSETQHKLLAEALESQTLLGPLELVGSLLEQSAPWQERSTMSLPPGLLGNSWGEGAPAWVLLDECGLELGEDTPHVCWEPQAQGRMCALYASLALLSGLSQEPH

Experiments:
[1] = molecular target: His-tagged SARS-CoV-2 nucleocapsid (SARS-CoV-2, UniProt P0DTC9 1-419); assay: pull-down
[2] = molecular target: Myc-tagged SARS-CoV-2 nucleocapsid (SARS-CoV-2, UniProt P0DTC9 1-419); assay: co-IP
[3] = molecular target: B1; assay: pull-down

Binder | binding result [1] | further results
MMRCLHNFLTDGVPAEGAFT (domain or fragment) [GST-tagged GSDMD linker containing amino acids 265-284] | binds | 
HNFLTDGVPAE (domain or fragment) [GST-tagged GSDMD linker containing amino acids 270-280] | binds | 
PSGLSMMRCLHNFLTDGVPAEGAFTEDFQGL (domain or fragment) [GST-tagged GSDMD linker containing amino acids 260-290] | binds | 
GST-GSDMD truncation lacking aa 302-310 (natural protein) MGSAFERVVRRVVQELDHGGEFIPVTSLQSSTGFQPYCLVVRKPSSSWFWKPRYKCVNLSIKDILEPDAAEPDVQRGRSFHFYDAMDGQIQGSVELAAPGQAKIAGGAAVSDSSSTSMNVYSLSVDPNTWQTLLHERHLRQPEHKVLQQLRSRGDNVYVVTEVLQTQKEVEVTRTHKREGSGRFSLPGATCLQGEGQGHLSQKKTVTIPSGSTLAFRVAQLVIDSDLDVLLFPDKKQRTFQPPATGHKRSTSEGAWPQLPSGLSMMRCLHNFLTDGVPAEGAFTEDFQGLRAEVETISKELLLLEGLEGVLRDQLALRALEEALEQGQSLGPVEPLDGPAGAVLECLVLSSGMLVPELAIPVVYLLGALTMLSETQHKLLAEALESQTLLGPLELVGSLLEQSAPWQERSTMSLPPGLLGNSWGEGAPAWVLLDECGLELGEDTPHVCWEPQAQGRMCALYASLALLSGLSQEPH | binds | 
B1 | binds | 
FLAG-tagged full-length GSDMD (natural protein) MGSAFERVVRRVVQELDHGGEFIPVTSLQSSTGFQPYCLVVRKPSSSWFWKPRYKCVNLSIKDILEPDAAEPDVQRGRSFHFYDAMDGQIQGSVELAAPGQAKIAGGAAVSDSSSTSMNVYSLSVDPNTWQTLLHERHLRQPEHKVLQQLRSRGDNVYVVTEVLQTQKEVEVTRTHKREGSGRFSLPGATCLQGEGQGHLSQKKTVTIPSGSTLAFRVAQLVIDSDLDVLLFPDKKQRTFQPPATGHKRSTSEGAWPQLPSGLSMMRCLHNFLTDGVPAEGAFTEDFQGLRAEVETISKELELLDRELCQLLLEGLEGVLRDQLALRALEEALEQGQSLGPVEPLDGPAGAVLECLVLSSGMLVPELAIPVVYLLGALTMLSETQHKLLAEALESQTLLGPLELVGSLLEQSAPWQERSTMSLPPGLLGNSWGEGAPAWVLLDECGLELGEDTPHVCWEPQAQGRMCALYASLALLSGLSQEPH |  | binding result [2]: binds
caspase-1 p20 (C285A)-His / p10-His complex (complex) chain 1: NPAMPTSSGSEGNVKLCSLEEAQRIWKQKSAEIYPIMDKSSRTRLALIICNEEFDSIPRRTGAEVDITGMTMLLQNLGYSVDVKKNLTASDMTTELEAFAHRPEHKTSDSTFLVFMSHGIREGICGKKHSEQVPDILQLNAIFNMLNTKNCPSLKDKPKVIIIQAARGDSPGVVWFKD chain 2: AIKKAHIEKDFIAFCSSTPDNVSWRHPTMGSVFIGRLIEHMQEYACSCDVEEIFRKVRFSFEQPDGRAQMPTTERVTLTRCFYLFPGH |  | binding result [3]: binds
GST-GSDMD truncation lacking both aa 302-310 and aa 350-368 (natural protein) MGSAFERVVRRVVQELDHGGEFIPVTSLQSSTGFQPYCLVVRKPSSSWFWKPRYKCVNLSIKDILEPDAAEPDVQRGRSFHFYDAMDGQIQGSVELAAPGQAKIAGGAAVSDSSSTSMNVYSLSVDPNTWQTLLHERHLRQPEHKVLQQLRSRGDNVYVVTEVLQTQKEVEVTRTHKREGSGRFSLPGATCLQGEGQGHLSQKKTVTIPSGSTLAFRVAQLVIDSDLDVLLFPDKKQRTFQPPATGHKRSTSEGAWPQLPSGLSMMRCLHNFLTDGVPAEGAFTEDFQGLRAEVETISKELLLLEGLEGVLRDQLALRALEEALEQGQSLGPVEPLDGPAIPVVYLLGALTMLSETQHKLLAEALESQTLLGPLELVGSLLEQSAPWQERSTMSLPPGLLGNSWGEGAPAWVLLDECGLELGEDTPHVCWEPQAQGRMCALYASLALLSGLSQEPH | binds | 
GST-GSDMD truncation lacking aa 350-368 (natural protein) MGSAFERVVRRVVQELDHGGEFIPVTSLQSSTGFQPYCLVVRKPSSSWFWKPRYKCVNLSIKDILEPDAAEPDVQRGRSFHFYDAMDGQIQGSVELAAPGQAKIAGGAAVSDSSSTSMNVYSLSVDPNTWQTLLHERHLRQPEHKVLQQLRSRGDNVYVVTEVLQTQKEVEVTRTHKREGSGRFSLPGATCLQGEGQGHLSQKKTVTIPSGSTLAFRVAQLVIDSDLDVLLFPDKKQRTFQPPATGHKRSTSEGAWPQLPSGLSMMRCLHNFLTDGVPAEGAFTEDFQGLRAEVETISKELELLDRELCQLLLEGLEGVLRDQLALRALEEALEQGQSLGPVEPLDGPAIPVVYLLGALTMLSETQHKLLAEALESQTLLGPLELVGSLLEQSAPWQERSTMSLPPGLLGNSWGEGAPAWVLLDECGLELGEDTPHVCWEPQAQGRMCALYASLALLSGLSQEPH | binds | 
